{"source": "the RNAGym collection of RNA variant scans (doi:10.7554/elife.80360)", "parents": {"B1": {"name": "HDV Ribozyme (parent)", "chain": "GGCCGGCAUGGUCCCAGCCUCCUCGCUGGCGCCGGCUGGGCAACAUUCCGAGGGGACCGUCCCCUCGGUAAUGGCGAAUGGGACCCA"}}, "data": [{"variants_of": "B1", "test": "self-cleavage, relative activity (ratio to wild type); higher = more cleavage; co-transcriptional", "values": [{"variant": "G2C A77C", "self-cleavage": 0}, {"variant": "C4A C18U", "self-cleavage": 0.119}, {"variant": "G2C C62G", "self-cleavage": 0.0852}, {"variant": "C3G G59C", "self-cleavage": 0.903}, {"variant": "C3G A51C", "self-cleavage": 0.779}, {"variant": "C3G A51U", "self-cleavage": 0.768}, {"variant": "G2U C61U", "self-cleavage": 0.103}, {"variant": "G2U G74U", "self-cleavage": 0.056}, {"variant": "G2U G74A", "self-cleavage": 0.0163}, {"variant": "C3A U23A", "self-cleavage": 0.475}, {"variant": "G2U C30A", "self-cleavage": 0.0396}, {"variant": "C3U A16U", "self-cleavage": 0.831}, {"variant": "C3U U79A", "self-cleavage": 0.591}, {"variant": "G2U A78G", "self-cleavage": 0.089}, {"variant": "C3A C21G", "self-cleavage": 0.0115}, {"variant": "G2C U46C", "self-cleavage": 0.0475}, {"variant": "C3A C32A", "self-cleavage": 0.0545}, {"variant": "G2U C18A", "self-cleavage": 0}, {"variant": "G2C A51U", "self-cleavage": 0.0468}, {"variant": "G2C A51C", "self-cleavage": 0.0308}, {"variant": "C3G C7G", "self-cleavage": 0.0244}, {"variant": "C3G C7U", "self-cleavage": 0.226}, {"variant": "G2U U9A", "self-cleavage": 0.0237}, {"variant": "C3G G10U", "self-cleavage": 0.193}, {"variant": "C3A A70G", "self-cleavage": 0.686}, {"variant": "G2C C22A", "self-cleavage": 0.114}, {"variant": "G2C C22U", "self-cleavage": 0.0567}, {"variant": "G2C C22G", "self-cleavage": 0.0875}, {"variant": "G2C C21G", "self-cleavage": 0.0396}, {"variant": "G2C C21U", "self-cleavage": 0.0615}, {"variant": "G2C U37G", "self-cleavage": 0}, {"variant": "G2U C75U", "self-cleavage": 0.021}, {"variant": "C4A C19U", "self-cleavage": 0.0203}, {"variant": "G2C A42C", "self-cleavage": 0.122}, {"variant": "C3G U27G", "self-cleavage": 0.479}, {"variant": "C3U C86A", "self-cleavage": 0.923}, {"variant": "C3U C86U", "self-cleavage": 0.718}, {"variant": "C3G C75U", "self-cleavage": 0.0863}, {"variant": "G2C C26G", "self-cleavage": 0.113}, {"variant": "G2C C18U", "self-cleavage": 0.0615}, {"variant": "C3U C14G", "self-cleavage": 0.739}, {"variant": "C3U C14U", "self-cleavage": 0.758}, {"variant": "C3U C30U", "self-cleavage": 0.345}, {"variant": "C3U C30A", "self-cleavage": 0.223}, {"variant": "C3U C30G", "self-cleavage": 0}, {"variant": "C3G A83G", "self-cleavage": 0.289}, {"variant": "G2U G6U", "self-cleavage": 0.0621}, {"variant": "G2U C21U", "self-cleavage": 0.0542}, {"variant": "G2U C21A", "self-cleavage": 0.0437}, {"variant": "C3U C15G", "self-cleavage": 0.6}, {"variant": "C3A G74C", "self-cleavage": 0.0369}, {"variant": "G2C C13U", "self-cleavage": 0.153}, {"variant": "G2U G73U", "self-cleavage": 0.0361}, {"variant": "G2C U20G", "self-cleavage": 0}, {"variant": "G2U A77C", "self-cleavage": 0.0674}, {"variant": "C3A G28C", "self-cleavage": 0.0275}, {"variant": "C3U U20C", "self-cleavage": 0.113}, {"variant": "G2U C58A", "self-cleavage": 0.0494}, {"variant": "G2U C58G", "self-cleavage": 0}, {"variant": "C3A C62A", "self-cleavage": 0.511}, {"variant": "C3A U27G", "self-cleavage": 0.322}, {"variant": "C3A U27A", "self-cleavage": 0.306}, {"variant": "G2U G28A", "self-cleavage": 0.0164}, {"variant": "G2C G59U", "self-cleavage": 0.0343}, {"variant": "C4A C41A", "self-cleavage": 0.117}, {"variant": "C3U A71G", "self-cleavage": 0.89}, {"variant": "C4A A45C", "self-cleavage": 0.0519}, {"variant": "C4A A45G", "self-cleavage": 0.138}, {"variant": "G2U G29U", "self-cleavage": 0.0712}, {"variant": "C3A C33A", "self-cleavage": 0.0698}, {"variant": "C3A A51U", "self-cleavage": 0.599}, {"variant": "G2U G5A", "self-cleavage": 0.0171}, {"variant": "G2U G5U", "self-cleavage": 0.0163}, {"variant": "C3A G73A", "self-cleavage": 0.152}, {"variant": "C3A G73C", "self-cleavage": 0.0755}, {"variant": "C3G U65C", "self-cleavage": 0.817}, {"variant": "C3U A56U", "self-cleavage": 0.861}, {"variant": "G2C C36G", "self-cleavage": 0.26}, {"variant": "G2C C66U", "self-cleavage": 0.0373}, {"variant": "G2U G82U", "self-cleavage": 0.0171}, {"variant": "G2U C36A", "self-cleavage": 0.366}, {"variant": "G2U C36U", "self-cleavage": 0.0308}, {"variant": "C3A A71C", "self-cleavage": 0.105}, {"variant": "C3U G6A", "self-cleavage": 0.245}, {"variant": "C3U G6U", "self-cleavage": 0.0934}, {"variant": "G2U A8C", "self-cleavage": 0}, {"variant": "C3U G55U", "self-cleavage": 0.805}, {"variant": "C3U G55C", "self-cleavage": 0.867}, {"variant": "G2C G82C", "self-cleavage": 0.0272}, {"variant": "C3U A87C", "self-cleavage": 0.759}, {"variant": "G2C C3A", "self-cleavage": 0.103}, {"variant": "G2C C3U", "self-cleavage": 0.102}, {"variant": "C3U G31U", "self-cleavage": 0.173}, {"variant": "C3A G54U", "self-cleavage": 0.453}, {"variant": "C4A A71G", "self-cleavage": 0.151}, {"variant": "C4A A71U", "self-cleavage": 0.259}, {"variant": "G2U A87G", "self-cleavage": 0.0468}, {"variant": "C3U C26A", "self-cleavage": 0.923}, {"variant": "C3U C62G", "self-cleavage": 0.415}, {"variant": "G2C U69A", "self-cleavage": 0.0252}, {"variant": "G2C U69G", "self-cleavage": 0.157}, {"variant": "C3A G38U", "self-cleavage": 0.0471}, {"variant": "C3A G38A", "self-cleavage": 0.124}, {"variant": "C3U U69C", "self-cleavage": 0.616}, {"variant": "C3A C85U", "self-cleavage": 0.626}, {"variant": "C4A C32A", "self-cleavage": 0.0332}, {"variant": "G2U G35C", "self-cleavage": 0.016}, {"variant": "C3G A87G", "self-cleavage": 0.708}, {"variant": "C3U G40C", "self-cleavage": 0.26}, {"variant": "C3U C58U", "self-cleavage": 0.696}, {"variant": "C3G G81A", "self-cleavage": 0.201}, {"variant": "C3G G81C", "self-cleavage": 0.0831}, {"variant": "C3G G81U", "self-cleavage": 0.185}, {"variant": "C4A C13A", "self-cleavage": 0.0282}, {"variant": "G2U C13U", "self-cleavage": 0}, {"variant": "C4A A87U", "self-cleavage": 0.39}, {"variant": "C4A A87G", "self-cleavage": 0.233}, {"variant": "C4A A87C", "self-cleavage": 0.21}, {"variant": "G2C G29C", "self-cleavage": 0.109}, {"variant": "G2U G39C", "self-cleavage": 0.0125}, {"variant": "C3G U12C", "self-cleavage": 0}, {"variant": "C3U G50C", "self-cleavage": 0.686}, {"variant": "C3U U47C", "self-cleavage": 0.564}, {"variant": "C3U U47A", "self-cleavage": 0.969}, {"variant": "C3G G50C", "self-cleavage": 0.475}, {"variant": "C3A G80C", "self-cleavage": 0.111}, {"variant": "C3A G52C", "self-cleavage": 0.676}, {"variant": "C3A G52A", "self-cleavage": 0.699}, {"variant": "C3U C13G", "self-cleavage": 0.179}, {"variant": "C3U C13U", "self-cleavage": 0.509}, {"variant": "G2U U27G", "self-cleavage": 0.0791}, {"variant": "C3A C44A", "self-cleavage": 0.103}, {"variant": "C3A C44G", "self-cleavage": 0.0615}, {"variant": "G2C C49A", "self-cleavage": 0.0594}, {"variant": "G2C C49U", "self-cleavage": 0.132}, {"variant": "G2C U79A", "self-cleavage": 0.133}, {"variant": "C3A C61A", "self-cleavage": 0.596}, {"variant": "G2C C86G", "self-cleavage": 0.0252}, {"variant": "C3U A8C", "self-cleavage": 0.269}, {"variant": "C3A G55U", "self-cleavage": 0.563}, {"variant": "C3A G55C", "self-cleavage": 0.642}, {"variant": "G2C C15A", "self-cleavage": 0.0297}, {"variant": "G2C C15G", "self-cleavage": 0}, {"variant": "C3A G25A", "self-cleavage": 0.0658}, {"variant": "C3A G76A", "self-cleavage": 0.783}, {"variant": "C3U G39U", "self-cleavage": 0.385}, {"variant": "G2U C85G", "self-cleavage": 0.0966}, {"variant": "C3U G11U", "self-cleavage": 0.138}, {"variant": "G2C U72G", "self-cleavage": 0.0791}, {"variant": "G2C U72C", "self-cleavage": 0.142}, {"variant": "C3U C7U", "self-cleavage": 0.529}, {"variant": "C4A C36U", "self-cleavage": 0}, {"variant": "C3A A42C", "self-cleavage": 0.162}, {"variant": "G2U C62U", "self-cleavage": 0.0314}, {"variant": "C3G G11C", "self-cleavage": 0.225}, {"variant": "C3G G11A", "self-cleavage": 0.144}, {"variant": "C3G G6A", "self-cleavage": 0.0923}, {"variant": "G2U U69A", "self-cleavage": 0.0222}, {"variant": "G2U U69G", "self-cleavage": 0.0475}, {"variant": "G2C C24G", "self-cleavage": 0.0361}, {"variant": "G2C C24U", "self-cleavage": 0.0405}, {"variant": "C3G C49G", "self-cleavage": 0.523}, {"variant": "C3G C86U", "self-cleavage": 0.885}, {"variant": "C3G G17C", "self-cleavage": 0.0941}, {"variant": "C3U G28U", "self-cleavage": 0.0707}, {"variant": "C3G A78C", "self-cleavage": 0.134}, {"variant": "G2C G53C", "self-cleavage": 0.125}]}]}
